This passage reports protein stability index results from the supplement of paper PMC10567573.

The data set in a line: protein stability index of a GFP-peptide fusion (GPS, HEK-293T) (PSI 1-6); higher = more stable. The conditions noted are these: c terminus: a fixed tail appended.

± gives the standard deviation.
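Further: 24-mer peptide tiles fused after GFP, lentivirally expressed, FACS-sorted into six equal bins by GFP/DsRed ratio, decoded by Illumina sequencing, PSI is the read-weighted mean bin number.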

Regarding HSSSRDSHLSNGLDPVAETAIRQL [C2CD2L], the protein stability index by setting is: (treatment: DMSO) 4.42 ± 0.35; (treatment: MLN4924 1 uM, 8 h) 4.53 ± 0.18.
The matching figures for HVGELIIWDALDWTMQAYERNFWD [WDR41]: 2.33 ± 0.26 and 2.25 ± 0.26.
The matching figures for HWDLAELLPNQSHGNQSAGEDQAF [SLC22A15]: 4.85 ± 0.28 and 4.8 ± 0.28.
The matching figures for HYCNSSTDRRVLLMFLDICSELNK [SPACA9]: 2.18 ± 0.35 and 2.21 ± 0.29.
Regarding HYDRNKDGNKDVYLSLLRMYLSPP [VPS39], the protein stability index amounted to 2.29 ± 0.14 (treatment: DMSO) and 2.16 ± 0.18 (treatment: MLN4924 1 uM, 8 h).
For HYIAGAHGNEVLGRELLLLLVQFV [CPXM2], in that order: 2 ± 0.075 and 2.22 ± 0.37.
For IAHDFPGIGHKVDAVFMKDGFFYF [MMP1], in that order: 2.41 ± 0.69 and 2.27 ± 0.16.
Take IAKELSKTYQETPEIDMFLNVATF [ZBED1]: the protein stability index was determined as 2.07 ± 0.24 (treatment: DMSO) and 2.12 ± 0.16 (treatment: MLN4924 1 uM, 8 h).
As to ICPSTFACAQLATGAACRLVEAVL [HDAC6], the protein stability index turned out to be 2.17 ± 0.32 (treatment: DMSO) and 2.14 ± 0.049 (treatment: MLN4924 1 uM, 8 h).
Consider IDLSHVTSKCGSLKNIRHRPGGGR [MAP2], for which the protein stability index (treatment: DMSO) was 3.18 ± 0.15 and the protein stability index (treatment: MLN4924 1 uM, 8 h) was 3.35 ± 0.3.
For IDVSNPQTVGVGRGRFTTYEIRVK [SNX3], in that order: 2.56 ± 0.25 and 2.69 ± 0.35.
As for IEPLVPEEKMETKTESSGIETEPT [EPB41L3], the protein stability index runs as follows: (treatment: DMSO) 5.45 ± 0.31; (treatment: MLN4924 1 uM, 8 h) 5.46 ± 0.51.
The matching figures for IGNPPVGPIGGMMPPQPGIPQQQG [ZNF207]: 4.62 ± 0.28 and 4.53 ± 0.21.
For IIKTEKVDLELFPSPDMECADVPL [ETS1], in that order: 3.99 ± 0.19 and 3.97 ± 0.22.
For IITVTLNMEKYNFLGISIVGQSNE [DVL3], in that order: 3.15 ± 0.69 and 3.04 ± 0.4.
IKEVVEKREACHCEEVKMTVASEA [FAN1]: the protein stability index by setting is: (treatment: DMSO) 4.89 ± 0.25; (treatment: MLN4924 1 uM, 8 h) 4.95 ± 0.17.
The matching figures for IKSVKESLQESVEDSLATVKVVLI [IQUB]: 2.27 ± 0.66 and 2.44 ± 0.32.
For ILAVSFAPLIQPCHSESGKSRLVQ [PCMTD2], in that order: 2.23 ± 0.59 and 1.93 ± 0.25.
The matching figures for ILDDGTISAHKPLLISSCDWMAAM [RHOBTB2]: 2.29 ± 0.24 and 2.12 ± 0.19.
ILDLSCNKLTTLPSDFCGLTHLVK [LRRC59]: the protein stability index by setting is: (treatment: DMSO) 2.02 ± 0.38; (treatment: MLN4924 1 uM, 8 h) 2.09 ± 0.022.
The matching figures for ILELLVLEQFLAILPKELQAWVQK [ZNF396]: 2.67 ± 0.24 and 2.65 ± 0.5.
For the sequence ILGPAYFVTYVFFVFFVLLNMFLA [PKD2L1], the protein stability index is, setting by setting: (treatment: DMSO) 2.88 ± 0.45; (treatment: MLN4924 1 uM, 8 h) 3.22 ± 0.3.
The matching figures for ILGPVVGGYLTELEDGFYLTAFIC [MFSD9]: 2.99 ± 0.34 and 3.05 ± 0.88.
For ILLSWTPPRSDTIANYELVYKDGE [PTPRD], in that order: 2.03 ± 0.41 and 2.23 ± 0.42.
The matching figures for ILNLTQALKDNKSPLHLVQMPPVI [PI4K2A]: 2.54 ± 0.27 and 2.35 ± 0.23.
With ILPKELQTWVRDHHPENGEEAVTV [ZNF24], the protein stability index reads like this: (treatment: DMSO) 3.92 ± 0.17; (treatment: MLN4924 1 uM, 8 h) 4.17 ± 0.25.
For ILSFTVIMVGFILYCSTPTRTAEP [SLC35F2], in that order: 3.27 ± 0.65 and 2.77 ± 0.53.
The matching figures for IMATLGFGDSPKAEKRQIGDQEGP [FBF1]: 4.37 ± 0.17 and 4.3 ± 0.12.
For IPGFKFDNSLINQIENLNIQVEDI [LOXL2], in that order: 3.51 ± 0.18 and 3.37 ± 0.38.
As to IPKLTPGDNPYMYPEQSKGFHKAG [SPATS1], the protein stability index reads like this: (treatment: DMSO) 3.97 ± 0.28; (treatment: MLN4924 1 uM, 8 h) 3.84 ± 0.25.
For IQFWNSRQSLEGLSVRSVFFGVFQ [CLPTM1], in that order: 2.65 ± 0.46 and 2.79 ± 0.91.
The matching figures for IQPDDLINQLTFIMDANQTYLVSE [FAF2]: 2.32 ± 0.27 and 2.37 ± 0.31.
For IQVSLYCQEWYARRHCPLPQATFW [SOAT2], in that order: 2.87 ± 0.38 and 3.07 ± 0.83.
In the case of IREALHELLCCTNVSTKEGIHLAL [INTS4], the protein stability index reads like this: (treatment: DMSO) 2.41 ± 0.46; (treatment: MLN4924 1 uM, 8 h) 2.48 ± 0.3.
The matching figures for IRIIDRALKEDFGFKHRLWVYSGR [PRIM1]: 2.18 ± 0.51 and 2.27 ± 0.51.
IRVVGRGAFGIVHLCLRKADQKLV [NEK8]: the protein stability index worked out at 3.02 ± 0.59 (treatment: DMSO) and 2.74 ± 0.81 (treatment: MLN4924 1 uM, 8 h).
The matching figures for ISFTLYLIGFCMFVLSLVKKHYRL [CDS2]: 2.29 ± 0.48 and 2.44 ± 0.53.
For ISPETMVALLTGKFSNIVDKFVIV [CDC25B], in that order: 2.29 ± 0.51 and 2.38 ± 0.73.
For ITRPSPRRSNSPDKFKRPTPPPSP [CCDC6], in that order: 5.18 ± 0.13 and 5.44 ± 0.081.
In the case of IVLLEELLPKGSKEEQRDYVFYLA [FIS1], the protein stability index (treatment: DMSO) came out at 2.33 ± 0.34 and the protein stability index (treatment: MLN4924 1 uM, 8 h) is 2.16 ± 0.44.
The matching figures for IVVGRLKVALEPQLWELGKVLRKA [LPCAT4]: 2.31 ± 0.37 and 2.61 ± 0.49.
For IWTAHYDPGHCFAESRELPVRCAG [ALG2], in that order: 2.38 ± 0.32 and 2.4 ± 0.24.
For IYRRYRQFHALQSKLEERFGPDSK [NCF4], in that order: 2.28 ± 0.23 and 2.61 ± 0.34.
For the sequence KAQLLARVNKEHEHKLKVVRDQIS [TRIM9], the protein stability index reads like this: (treatment: DMSO) 3.34 ± 0.27; (treatment: MLN4924 1 uM, 8 h) 3.42 ± 0.075.
As to KAVSEMRQKIWNNMPKDHPVSCCL [DYNC2LI1], the protein stability index (treatment: DMSO) amounted to 2.41 ± 0.21 and the protein stability index (treatment: MLN4924 1 uM, 8 h) worked out at 2.46 ± 0.29.
For KDEEGRLRDPATITTLRVPVLRPM [PPP2R2B], in that order: 3.78 ± 0.23 and 4.04 ± 0.26.
The matching figures for KDESCYDNAEAAFSDDEEDLNSKG [INTS3]: 5.6 ± 0.39 and 5.5 ± 0.18.
KDNEFTSKPWHWPINYQGLRFSGV [POMT2] came in with a protein stability index (treatment: DMSO) of 2.23 ± 0.23 and a protein stability index (treatment: MLN4924 1 uM, 8 h) of 2.42 ± 0.22.
For KECGKVFSQSAGLIQHQRIHKGEK [ZSCAN9], in that order: 4.42 ± 0.16 and 4.48 ± 0.3.
The matching figures for KEEAGAPGGGAGMAAGFPYALRAY [CEBPB]: 3.06 ± 0.13 and 3.31 ± 0.15.
The matching figures for KELVEFAQDDDRLREERKKAKKNK [CLINT1]: 5.49 ± 0.096 and 5.53 ± 0.17.
Turning to KFHHSDCLSTWLLHFIATNYLIFS [RHOBTB3], the protein stability index reads like this: (treatment: DMSO) 3.21 ± 0.23; (treatment: MLN4924 1 uM, 8 h) 3.05 ± 0.24.
The matching figures for KFLIWDTAGQERFRALAPMYYRGS [RAB22A]: 2.39 ± 0.23 and 2.55 ± 0.33.
In turn, KGISQTNLITTVTPEKKAEEERDE [EPB41L3] gave a protein stability index (treatment: DMSO) of 5.54 ± 0.13 and a protein stability index (treatment: MLN4924 1 uM, 8 h) of 5.59 ± 0.2.
As for KHGIEYQSKPLLSAFADIIHSLKE [FADS1], the protein stability index came out at 2.51 ± 0.44 (treatment: DMSO) and 2.81 ± 0.49 (treatment: MLN4924 1 uM, 8 h).
Consider KHSVLLSASRKSAEQLRIELNAEK [WEE1], for which the protein stability index (treatment: DMSO) came out at 3.92 ± 0.32 and the protein stability index (treatment: MLN4924 1 uM, 8 h) is 4.16 ± 0.21.
The matching figures for KIEDFREEMWTFRGKIHAFRGQIL [CCDC70]: 2.41 ± 0.24 and 2.09 ± 0.31.
Consider KIKEKYIDQEELNKTKPIWTRNPD [HSP90AB1], for which the protein stability index was 3.71 ± 0.26 (treatment: DMSO) and 3.96 ± 0.24 (treatment: MLN4924 1 uM, 8 h).
For KILHTAWHPAENIIAIAATNNLYI [PPP2R2C], in that order: 2.81 ± 0.54 and 2.93 ± 0.53.
Regarding KIMEAESQKATRECEKSALTPGFS [FAN1], the protein stability index stood at 4.86 ± 0.29 (treatment: DMSO) and 4.84 ± 0.14 (treatment: MLN4924 1 uM, 8 h).
For KIWPEIKVPRPDALDNESWGFVHP [RETREG3], in that order: 2.68 ± 0.48 and 2.57 ± 0.54.
The matching figures for KKEELLFDDGDDIMATLGFGDSPK [FBF1]: 4.54 ± 0.2 and 4.59 ± 0.27.
Turning to KKKGMYRKAITEAANAARHVAPEI [PWWP2B], the protein stability index (treatment: DMSO) turned out to be 4.33 ± 0.045 and the protein stability index (treatment: MLN4924 1 uM, 8 h) was found to be 4.5 ± 0.28.
For the sequence KKKKDKEKEKEKHKVKAEEEKKAK [BRD3], the protein stability index (treatment: DMSO) worked out at 5.2 ± 0.3 and the protein stability index (treatment: MLN4924 1 uM, 8 h) was determined as 5.66 ± 0.13.
For KKQPWWRKLFGQESGPSAEKYSVA [FUNDC2], in that order: 3.1 ± 0.16 and 3.32 ± 0.35.
For KLERLKQQNEDLRRMAESLRIPEG [FUT8], in that order: 3.87 ± 0.28 and 4 ± 0.3.
The matching figures for KLLKQMRILWKKIQENQRNLYEEG [TRIM43]: 1.88 ± 0.61 and 1.85 ± 0.081.
Take KMAHVIAACLYLVCRTEGTPHMLL [BRF1]: the protein stability index reads like this: (treatment: DMSO) 3.26 ± 0.64; (treatment: MLN4924 1 uM, 8 h) 2.84 ± 0.42.
For KMNGSHRDQGSSALSGVGGIRLPN [IKZF1], in that order: 4.1 ± 0.32 and 3.8 ± 0.12.
For the sequence KNALEKYGPLKPLPQTPHLEEDLK [MYBL2], the protein stability index by setting is: (treatment: DMSO) 5.16 ± 0.38; (treatment: MLN4924 1 uM, 8 h) 5.11 ± 0.2.
For KPSGALGSESYKSSAGSAEQTAPG [EHMT1], in that order: 5.26 ± 0.39 and 5.43 ± 0.22.
The matching figures for KPSVDTEGPALVEIDRSVENTLLN [MIA2]: 4.99 ± 0.23 and 5.07 ± 0.26.
